Patent US20240318218A1 (The Trustees of Columbia University in The City of New York, priority 2023, published 2024)
Blank lines part the entries; values can stand above or below the molecule they belong to.

Assays:
human NADK = biological target: T1, human NADK (Homo sapiens, UniProt O95544); settings: cited from earlier work
T1 sequence (O95544 1-446): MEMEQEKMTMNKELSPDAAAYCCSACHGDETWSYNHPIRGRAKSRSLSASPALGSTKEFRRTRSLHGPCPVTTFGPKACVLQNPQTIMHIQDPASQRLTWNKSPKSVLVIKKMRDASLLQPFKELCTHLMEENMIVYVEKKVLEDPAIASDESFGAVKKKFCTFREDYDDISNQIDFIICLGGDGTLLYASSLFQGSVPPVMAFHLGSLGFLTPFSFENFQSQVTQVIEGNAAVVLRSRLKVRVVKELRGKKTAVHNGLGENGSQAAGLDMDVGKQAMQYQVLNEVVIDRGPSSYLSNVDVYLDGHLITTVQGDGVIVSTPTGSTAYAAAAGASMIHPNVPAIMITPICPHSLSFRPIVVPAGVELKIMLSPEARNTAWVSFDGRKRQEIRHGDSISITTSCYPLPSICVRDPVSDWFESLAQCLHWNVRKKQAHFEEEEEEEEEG

[1] = biological target: T2, B. subtilis polyphosphate NAD+ kinase (PPNK), recombinant, 6x-histidine tag (Bacillus subtilis, UniProt O31612); assay: Kinetics of polyphosphate NAD+ kinase (PPNK), coupled to TPNOX, absorbance at 340 nm; settings: 26° C., pH 7.8, 10 mM MgCl2, random bi-bi sequential
T2 sequence (O31612 1-266): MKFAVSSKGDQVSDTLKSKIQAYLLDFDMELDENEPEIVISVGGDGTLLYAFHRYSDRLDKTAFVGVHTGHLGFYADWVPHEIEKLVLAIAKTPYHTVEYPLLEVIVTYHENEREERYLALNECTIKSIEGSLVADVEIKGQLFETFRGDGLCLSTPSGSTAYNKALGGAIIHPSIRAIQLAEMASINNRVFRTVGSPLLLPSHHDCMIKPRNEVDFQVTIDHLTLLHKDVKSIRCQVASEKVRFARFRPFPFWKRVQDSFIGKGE
Description: (§4) For overexpression, the enzymes were transformed into BL21(DE3) E. coli cells (New England Biolabs). […] Overexpression of the enzymes was induced by adding isopropyl-β-thiogalactopyranoside (IPTG) to a final concentration of 1 mM at an optical density (OD) of 0.6 at 600 nm. After 3 h of induction, the cells were harvested and sonicated in wash buffer A for TPNOX (10 mM imidazole, 300 mM NaCl, and 20 mM Tris-HCl pH 7.4) and wash buffer B for all other enzymes (40 mM imidazole, 300 mM NaCl, and 20 mM Tris-HCl pH 7.4). The cells were centrifuged at 7000 rpm for 1 h and 4° C. The protein was purified using a nickel-nitrilotriacetic acid (Ni-NTA) column with continuous elution up to 500 mM imidazole.
(§5) The reaction was carried out at 26° C. in a solution containing 10 mM Tris-HCl, pH 7.8, 10 mM MgCl2, and 0.02 μg/μL TPNOX. […] A molar absorption coefficient of 6.22×10^4 mol^−1 cm^−1 was used to convert absorption to molar concentration of NADPH.

ATP production = settings: 1 mM fuel; cascade with ADH, formDH and FDH; polyphosphate; 200 μL
Description: Exemplary cascades were tested with ADH and formDH. […] The cascade was tested in 200 μL reaction volumes.

[2] = substrate: Nc1ncnc2c1ncn2[C@@H]1O[C@H](COP(=O)(O)OP(=O)(O)O)[C@@H](O)[C@H]1O; assay: purified protein, by the assay type; type: biochemical, pigeon; settings: other: reverse direction; random bi-bi sequential mechanism
Text: The ATP-producing NADK has been predominantly studied in the forward direction (consuming ATP) since the observed isoforms, such as the human NADK, are irreversible. Without wishing to be bound by theory, one form, pigeon NADK, follows a random bi-bi sequential mechanism and the kinetic parameters for the reverse direction are found in Table I.
Synthetic pigeon, duck, and cat NADK genes and a cloned human NADK gene all with C-terminal 6×-histidine tags were expressed E. coli and purified to apparent homogencity. The pigeon enzyme shares 85% sequence homology with the human enzyme, while the duck and pigeon enzymes are 96% sequence homology. The cat enzyme shares a 91% sequence homology to the human enzyme.
Referring now to FIGS. 3A-3B, initial rate kinetic experiments were performed with pigeon, duck, cat, and human NADK enzymes in both the forward and reverse directions. […] In FIG. 3B, the production of ATP was detected in a coupled reaction with firefly luciferase where ATP was converted to light, the relative luminescence (RLU) was monitored, and a standard curve was used to calculate the ATP concentration. […]
ATP production was measured using firefly luciferase. […] The luminescence was measured in a plate reader in 26° C. in a solution containing 10 mM Tris-HCl, pH 7.8, and 10 mM MgCl2. The ATP produced was calculated from luminescence using a calibration plot. […]

[3] = substrate: NC(=O)c1ccc[n+]([C@@H]2O[C@H](COP(=O)([O-])OP(=O)(O)OC[C@H]3O[C@@H](n4cnc5c(N)ncnc54)[C@H](OP(=O)(O)O)[C@@H]3O)[C@@H](O)[C@H]2O)c1; assay: purified protein, by the assay type; settings: other: reverse direction; random bi-bi sequential mechanism
[4] = substrate: NC(=O)C1=CN([C@@H]2O[C@H](COP(=O)(O)OP(=O)(O)OC[C@H]3O[C@@H](n4cnc5c(N)ncnc54)[C@H](O)[C@@H]3O)[C@@H](O)[C@H]2O)C=CC1; assay: purified protein, by the assay type; settings: 26° C., pH 7.8, 10 mM MgCl2, random bi-bi sequential, pH 7.8, 26.0 °C
[5] = substrate: Nc1ncnc2c1ncn2[C@@H]1O[C@H](COP(=O)(O)OP(=O)(O)OP(=O)(O)O)[C@@H](O)[C@H]1O; assay: purified protein, by the assay type; settings: other: cosubstrate NADH, 26° C., pH 7.8, 10 mM MgCl2, random bi-bi sequential
Description: as §4, §5

NADK = assay: Initial rate kinetic experiments with pigeon, duck, cat and human NADK enzymes, forward and reverse directions; type: biochemical; settings: reverse direction (NADP^+ + ADP to NAD^+ + ATP); recombinant enzyme
Description: Recombinantly-expressed NADKs were explored for their reversible activities. It was hypothesized that the reversibility of the pigeon enzyme would enable compensation for the high picolinic acid […] (PC) activity present in pigeon livers, which inhibits NAD^+ biosynthesis from dietary tryptophan. […] It was determined that human NADK has an affinity for NAD^+ that is about 600 times higher than the pigeon, duck and cat isoforms. Without wishing to be bound by theory, NAD^+ serves as a product inhibitor for the reverse human NADK activity, which accounts for the observed irreversible behavior. While each of the NADKs explored were “reversible,” the reverse activity of the human enzyme is impeded via product inhibition. […]
Referring now to FIGS. 3A-3B, initial rate kinetic experiments were performed with pigeon, duck, cat, and human NADK enzymes in both the forward and reverse directions. […] In FIG. 3B, the production of ATP was detected in a coupled reaction with firefly luciferase where ATP was converted to light, the relative luminescence (RLU) was monitored, and a standard curve was used to calculate the ATP concentration.

[6] = substrate: O=CO; assay: Kinetics of formate dehydrogenase (FDH); type: biochemical, C. boidinii; settings: other: abbreviated sequential mechanism; pH 7.4; 37.0 °C
Text: (§1) The enzymes involved in the cascade were characterized. Kinetic parameters for the NADH-dependent dehydrogenases, PPNKs, NADPH oxidases, and NADKs included in the exemplary embodiments of the present disclosure are shown in Table I below.
(§2) The FDH from C. boidinii was expressed recombinantly in a pEt28a plasmid and purified according to the materials and methods.
(§3) For overexpression, the enzymes were transformed into BL21(DE3) E. coli cells (New England Biolabs). Overnight cultures of BL21(DE3) E. coli cells harboring the DNA in pET20b plasmids and pET28a plasmid for FDH and sfGFP, respectively, were transferred into 50 mL of LB medium with 100 μg/mL ampicillin at 37° C. Overexpression of the enzymes was induced by adding isopropyl-β-thiogalactopyranoside (IPTG) to a final concentration of 1 mM at an optical density (OD) of 0.6 at 600 nm. After 3 h of induction, the cells were harvested and sonicated in wash buffer A for TPNOX (10 mM imidazole, 300 mM NaCl, and 20 mM Tris-HCl pH 7.4) and wash buffer B for all other enzymes (40 mM imidazole, 300 mM NaCl, and 20 mM Tris-HCl pH 7.4). The cells were centrifuged at 7000 rpm for 1 h and 4° C. The protein was purified using a nickel-nitrilotriacetic acid (Ni-NTA) column with continuous elution up to 500 mM imidazole.

[7] = substrate: NC(=O)c1ccc[n+]([C@@H]2O[C@H](COP(=O)([O-])OP(=O)(O)OC[C@H]3O[C@@H](n4cnc5c(N)ncnc54)[C@H](O)[C@@H]3O)[C@@H](O)[C@H]2O)c1; assay: Kinetics of formate dehydrogenase (FDH); type: biochemical, C. boidinii; settings: other: abbreviated sequential mechanism; pH 7.4; 37.0 °C
Text: as §1, §2, §3

Molecule: NC(=O)C1=CN([C@@H]2O[C@H](COP(=O)(O)OP(=O)(O)OC[C@H]3O[C@@H](n4cnc5c(N)ncnc54)[C@H](OP(=O)(O)O)[C@@H]3O)[C@@H](O)[C@H]2O)C=CC1 [NADPH]
inhibition of human NADK (human NADK): inhibited

kcat ([1]; substrates NADH and ATP): (2.6 ± 1.9) × 10^2 min^−1
kcat ([1]; substrates NADH and poly(P) (sodium metaphosphate)): (5.6 ± 2.6) × 10^2 min^−1
Molecule: NC(=O)C1=CN([C@@H]2O[C@H](COP(=O)(O)OP(=O)(O)OC[C@H]3O[C@@H](n4cnc5c(N)ncnc54)[C@H](O)[C@@H]3O)[C@@H](O)[C@H]2O)C=CC1 [NADH]
inhibition of human NADK (human NADK): inhibited

Molecule: CO [methanol]
ATP production rate (ATP production): 7.2×10^7 total RLU/h

Molecule: O=CO [formate]
ATP production rate (ATP production): 1.3×10^7 total RLU/h

Molecule: NC(=O)c1ccc[n+]([C@@H]2O[C@H](COP(=O)([O-])OP(=O)(O)OC[C@H]3O[C@@H](n4cnc5c(N)ncnc54)[C@H](OP(=O)(O)O)[C@@H]3O)[C@@H](O)[C@H]2O)c1 [NADP^+]
inhibition of human NADK (human NADK): not

B1: pigeon NADK (ATP-NAD+ kinase), recombinant, C-terminal 6x-histidine tag (Columba livia) (protein)
chain: MEMNRDKLCPGKADVSSDSAYHCSTCHDDEEWSNTSRGRAKSRSLSASPALGSTKEFRRTRSLHGPCPVTTFGPKACMLQNPKTIMHIQDPASQRLTWNKPPKSVLVIKKIRDASLLQPFKELCVYLTEENNMIVYVEKKVLEDPAIANDDNFGPVKKKFCTFREDYDDISNQIDFIICLGGDGTLLYASSLFQGSVPPVMAFHLGSLGFLTPFNFENFQSQVTQVIEGNAALVLRSRLKVKVVKEHREKTTVQNGIEENGVVSANIEKEVGKQIMQYQVLNEVVVDRGPSSYLSNVDVFLNGHLITTVQGDGVIVSTPTGSTAYAAAAGASMIHPNVPAIMITPICPHSLSFRPIVVPAGVELKIMLSPDARNTAWVSFDGRKRQEICHGDSISITTSCYPLPSICFRDPVSDWFESLAECLHWNVRKKQNNFAVEEEEF
Km [2]: 27000 ± 10000 µM
Km [3]: 730 ± 160 µM
kcat [3]: 0.145 ± 0.06 s⁻¹

B2: B. subtilis polyphosphate NAD+ kinase (PPNK), recombinant, 6x-histidine tag (Bacillus subtilis subsp. subtilis str. 168) (protein)
chain: MKFAVSSKGDQVSDTLKSKIQAYLLDFDMELDENEPEIVISVGGDGTLLYAFHRYSDRLDKTAFVGVHTGHLGFYADWVPHEIEKLVLAIAKTPYHTVEYPLLEVIVTYHENEREERYLALNECTIKSIEGSLVADVEIKGQLFETFRGDGLCLSTPSGSTAYNKALGGAIIHPSIRAIQLAEMASINNRVFRTVGSPLLLPSHHDCMIKPRNEVDFQVTIDHLTLLHKDVKSIRCQVASEKVRFARFRPFPFWKRVQDSFIGKGE
Km ([4]; other: cosubstrate ATP): 1700 ± 1400 µM
Km ([4]; other: cosubstrate poly(P) (sodium metaphosphate)): 1200 ± 600 µM
Km [5]: 1400 ± 1110 µM

B3: human NADK: cloned human ATP-NAD^+ kinase with C-terminal 6×-histidine tag (protein, UniProt O95544 1-446, looked up)
NAD kinase: MEMEQEKMTMNKELSPDAAAYCCSACHGDETWSYNHPIRGRAKSRSLSASPALGSTKEFRRTRSLHGPCPVTTFGPKACVLQNPQTIMHIQDPASQRLTWNKSPKSVLVIKKMRDASLLQPFKELCTHLMEENMIVYVEKKVLEDPAIASDESFGAVKKKFCTFREDYDDISNQIDFIICLGGDGTLLYASSLFQGSVPPVMAFHLGSLGFLTPFSFENFQSQVTQVIEGNAAVVLRSRLKVRVVKELRGKKTAVHNGLGENGSQAAGLDMDVGKQAMQYQVLNEVVIDRGPSSYLSNVDVYLDGHLITTVQGDGVIVSTPTGSTAYAAAAGASMIHPNVPAIMITPICPHSLSFRPIVVPAGVELKIMLSPEARNTAWVSFDGRKRQEIRHGDSISITTSCYPLPSICVRDPVSDWFESLAQCLHWNVRKKQAHFEEEEEEEEEG
reverse NADK activity (NADK): no measurable activity in the reverse direction

B4: C. boidinii formate dehydrogenase (FDH), recombinant ([Candida] boidinii) (protein)
chain: MKIVLVLYDAGKHAADEEKLYGCTENKLGIANWLKDQGHELITTSDKEGETSELDKHIPDADIIITTPFHPAYITKERLDKAKNLKLVVVAGVGSDHIDLDYINQTGKKISVLEVTGSNVVSVAEHVVMTMLVLVRNFVPAHEQIINHDWEVAAIAKDAYDIEGKTIATIGAGRIGYRVLERLLPFNPKELLYYDYQALPKEAEEKVGARRVENIEELVAQADIVTVNAPLHAGTKGLINKELLSKFKKGAWLVNTARGAICVAEDVAAALESGQLRGYGGDVWFPQPAPKDHPWRDMRNKYGAGNAMTPHYSGTTLDAQTRYAEGTKNILESFFTGKFDYRPQDIILLNGEYVTKAYGKHDKK
notes: made in house; host or cells: E. coli BL21(DE3)
Km [6]: 4000 ± 60 µM
Km [7]: 30 ± 2 µM
kcat [7]: (3.4 ± 0.1) × 10^2 min^−1
